Values belong to the substance of their own block, whether it stands above or below them. Where no end group is shown, it is not given here.
What was measured:
[1] = tested on: human primary PMNs; experiment: PMN reactive oxygen species (ROS) production, luminol-amplified chemiluminescence; type: cell-based; conditions: relative to 10 uM fMLF, AUC 5 minutes (Table 8a)
[2] = tested on: primary human polymorphonuclear neutrophil (PMN); experiment: PMN chemotaxis (transwell, modified Boyden chamber); type: cell-based; conditions: for Relative Migration (PMN migration): relative to 10 nM fMLF (Table 4a)
Procedure: Chemotaxis is measured by observing primary human polymorphonuclear neutrophil (PMN) migration across transwell membranes (Corning #3415) towards antibody conjugates in a modified Boyden chamber assay. Approximately 2-4×10^5 cells from neutrophil-enriched preparations are seeded in upper transwell chambers on membranes with 3.0 um pores. The lower transwell chambers contain solutions of buffer alone and fMLF (N-formyl-Met-Leu-Phe peptide as positive control) and experimental antibody bioconjugates. […] Cell numbers are determined using standard curves. All data are transformed to percent relative to the maximal fMLF response for each individual experiment.

[3] = target: formyl peptide receptor 1 (FPR1) on primary human polymorphonuclear neutrophils (human) (UniProt P21462); experiment: cell-based or functional assay

Substance: H-Met-Leu-Phe-Lys (Mal-PEG12-OH (H-MLFK; not fully specified (residue 4)) [Peptide-'844]
ROS Production by PMNs ([1]; 1 pM): 7.4 percentage
ROS Production by PMNs ([1]; 10 pM): 7.5 percentage
ROS Production by PMNs ([1]; 100 pM): 7.5 percentage
ROS Production by PMNs ([1]; 1 nM): 8.4 percentage
ROS Production by PMNs ([1]; 10 nM): 7.8 percentage
ROS Production by PMNs ([1]; 100 nM): 8.2 percentage
ROS Production by PMNs ([1]; 1 μM): 8.7 percentage
ROS Production by PMNs ([1]; 10 μM): 23.5 percentage
concentration at which PMN migration is maximally induced [2]: 1 µM
Relative Migration (PMN migration) ([2]; 1 pM): 1.4%
Relative Migration (PMN migration) ([2]; 10 pM): 4.1%
Relative Migration (PMN migration) ([2]; 100 pM): 0.4%
Relative Migration (PMN migration) ([2]; 1 nM): 11.1%
Relative Migration (PMN migration) ([2]; 10 nM): 2.9%
Relative Migration (PMN migration) ([2]; 100 nM): 20.4%
Relative Migration (PMN migration) ([2]; 1 uM): 114.2%
Relative Migration (PMN migration) ([2]; 10 uM): 110.4%
fold less potent at inducing PMN migration than Peptide-'183 ([2]; dose response differences): 1000 fold

EC50 of PMN ROS production [3]: 103 nM
PMN ROS production at 1 pM (percent relative to 10 uM fMLF) [3]: 6.9%
PMN ROS production at 10 pM (percent relative to 10 uM fMLF) [3]: 7.4%
PMN ROS production at 100 pM (percent relative to 10 uM fMLF) [3]: 7.5%
PMN ROS production at 1 nM (percent relative to 10 uM fMLF) [3]: 8.8%
PMN ROS production at 10 nM (percent relative to 3000 nM fMLF) [3]: 3.6%
PMN ROS production at 10 nM (percent relative to 10 uM fMLF) [3]: 31.3%
PMN ROS production at 30 nM (percent relative to 3000 nM fMLF) [3]: 12.2%
PMN ROS production at 100 nM (percent relative to 3000 nM fMLF) [3]: 49.9%
PMN ROS production at 100 nM (percent relative to 10 uM fMLF) [3]: 76.6%
PMN ROS production at 300 nM (percent relative to 3000 nM fMLF) [3]: 76.2%
PMN ROS production at 1 µM (percent relative to 10 uM fMLF) [3]: 94%
PMN ROS production at 1000 nM (percent relative to 3000 nM fMLF) [3]: 94.3%
PMN ROS production at 3000 nM (percent relative to 3000 nM fMLF) [3]: 99.5%
PMN ROS production at 10 µM (percent relative to 10 uM fMLF) [3]: 107%
PMN ROS production at 10000 nM (percent relative to 3000 nM fMLF) [3]: 89.1%
PMN migration at 1 nM (percent relative to 100 nM fMLF) [3]: 150%
PMN migration at 3 nM (percent relative to 100 nM fMLF) [3]: 167%
PMN migration at 10 nM (percent relative to 100 nM fMLF) [3]: 145%
PMN migration at 30 nM (percent relative to 100 nM fMLF) [3]: 118%
PMN migration at 100 nM (percent relative to 100 nM fMLF) [3]: 84.2%
PMN migration at 300 nM (percent relative to 100 nM fMLF) [3]: 50.4%
PMN migration at 1000 nM (percent relative to 100 nM fMLF) [3]: 33.6%
Substance: Peptide-'183, formyl-Met-Leu-Phe-Lys(Mal-PEG12)-OH with hydrolyzed maleimido group (unconjugated peptide)

Substance: Tmab-G1-fMIFL-HC124C-378C-(PEG3) (antibody)
EC50 of PMN ROS production [3]: 31.3 nM

Substance: Tmab-G1-fMIFL-HC124C-378C-(PEG6) (antibody)
EC50 of PMN ROS production [3]: 13.6 nM

Substance: Tmab-G1-fMIFL-HC124C-378C-(PEG12) (antibody)
EC50 of PMN ROS production [3]: 36.4 nM
